{
  "source": "patent US20190284544",
  "key": {"[1]": {"test_system": "CAPN5-370-380 peptide (RQNRGGGCINH)"}, "CAPN5p.372-378 peptide": {"target": "CAPN5p.372-378 peptide (UniProt O15484)"}, "[2]": {"test_system": "homologous regions of other CAPN members"}},
  "data": [
    {"substance": "CAPN5 WT (Homo sapiens calpain 5)", "values": [
      {"measurement": "proteolysis", "setting": "CAPN14 peptide", "result": "there was some proteolysis of the CAPN14 peptide"},
      {"measurement": "cleavage (change in fluorescence)", "setting": "[1]", "result": "the CAPN5-370-380 fragment was the most sensitive to cleavage by both WT and R243L CAPN5"},
      {"measurement": "cleavage (fluorescence)", "setting": "[1]", "result": "rapid and high cleavage of the 11 aa peptide"},
      {"measurement": "fluorescent intensity (FRET substrate proteolysis)", "setting": "[1]", "result": "CAPN5-WT proteolyzes the substrate, CAPN5 (p370-380), at a higher rate than other peptides"},
      {"measurement": "proteolysis (fluorescence)", "setting": "[1]", "result": "The peptide shows high proteolysis when incubated with CAPN5-WT"},
      {"measurement": "cleavage (fluorescence)", "setting": "CAPN5-370-390 peptide", "result": "The 21 aa peptide was cleaved slower and does not show cleavage substrate inhibition"},
      {"measurement": "cleavage (fluorescence)", "setting": "CAPN5p.372-378 peptide", "result": "There was mild cleavage of the 7 aa peptide was observed"},
      {"measurement": "initial reaction rate (proteolysis of CAPN5p.370-80 by CAPN5 WT)", "setting": "Cyclic CAPN5 p.370-80", "result": "Addition of 10 µM Cyclic CAPN5 p.370-80 slows the initial reaction rate by 40%"},
      {"measurement": "initial velocity versus substrate concentration, with and without 10 µM cyclic peptide", "setting": "Cyclic CAPN5 p.370-80", "result": "Increasing concentrations of substrate does not overcome inhibition by cyclic peptide"},
      {"measurement": "proteolysis", "setting": "EPLFAERK peptide", "result": "it is not proteolyzed by CAPN5"},
      {"measurement": "proteolysis (fluorescence)", "setting": "EPLFAERK peptide", "result": "very limited proteolysis when incubated with CAPN5-WT"},
      {"measurement": "proteolysis", "setting": "[2]", "result": "CAPN5 did not proteolyze homologous regions of other CAPN members as well as it proteolyzed its own site"}
    ]},
    {"substance": "CAPN5-R243L", "values": [
      {"measurement": "cleavage (change in fluorescence)", "setting": "[1]", "result": "the CAPN5-370-380 fragment was the most sensitive to cleavage by both WT and R243L CAPN5"},
      {"measurement": "fluorescent intensity (FRET substrate proteolysis)", "setting": "[1]", "result": "the greatest fluorescent intensity is detected with substrates CAPN5 (p370-390), CAPN5 (370-380), and PDGFB (155-170)"},
      {"measurement": "fluorescent intensity (FRET substrate proteolysis)", "setting": "CAPN5-370-390 peptide", "result": "the greatest fluorescent intensity is detected with substrates CAPN5 (p370-390), CAPN5 (370-380), and PDGFB (155-170)"},
      {"measurement": "fluorescent intensity (FRET substrate proteolysis)", "setting": "PDGFB (155-170) peptide", "result": "the greatest fluorescent intensity is detected with substrates CAPN5 (p370-390), CAPN5 (370-380), and PDGFB (155-170)"}
    ]},
    {"substance": "MBP-CAPN5 WT", "values": [
      {"measurement": "reaction rate (initial velocity of proteolysis)", "setting": "Pep-1-Mod", "result": "Modification of the amino acids slows the reaction rate"},
      {"measurement": "reaction rate (initial velocity of proteolysis)", "setting": "Pep-2-Mod", "result": "Modification of the amino acids slows the reaction rate"}
    ]},
    {"substance": "CAPN1 WT", "values": [
      {"measurement": "proteolysis", "setting": "[2]", "result": "CAPN1 does not appear to proteolyze these regions"}
    ]}
  ]
}
